The source of these data is publication PMC3682188, “Membrane Binding and Self-Association of the Epsin N-Terminal Homology Domain” (Journal of Molecular Biology, 2012).

The series deals with the molecule itself. The series can be described thus: EPR spectroscopy (spin-spin interaction of singly labeled protein, with spin dilution); bound to preformed lipid tubules (10% cholesterol/40% phosphatidylcholine/40% galactocerebrosides/10% PIP2); 10 uM protein with 60 ug tubes in 100 ul, 10 min at RT, pelleted at 152,800g; 20 mM Hepes pH 7.4, 150 mM NaCl; fully labeled compared with 33% labeled and 67% unlabeled protein.

B1: rat epsin 1 ENTH domain (1-164), spin-labeled at residue 14 (domain or fragment)
chain: GSPGIHMSTSSLRRQMKNICHNYSEAEIKVREATSNDPWGPSSSLMSEIADLTYNVVAFSEIMSMIWKRLNDHGKNWRHVYKAMTLMEYLIKTGSERVSQQSKENMYAVQTLKDFQYVDRDGKDQGVNVREKAKQLVALLRDEDRLREERAHALKTKEKLAQTATASSAA
modifications: MTSL spin label (R1 side chain) on the cysteine introduced at position 14
notes: cysteine-less background (C96S) with a single cysteine at position 14; same construct as the crystallography study (PDB 1H0A); also called V14; source: E. coli BL21 (DE3), purified (glutathione-Sepharose, thrombin, ion exchange, gel filtration), labeled with MTSL; not shown: GST, N-terminal, cleaved
In the case of B1, the binding result is “binds”.
